From paper PMC6677536 (2019)

B1: Full-length Nxf2, 3xFLAG-tagged [D. melanogaster] / Full-length Panx, HA-tagged [D. melanogaster] (parent complex)
chain 1: MPNQMRVLDFGDGSVPIQLDYPDSKIFSKCSSYGDRVPGTHWNEITVHHKGRLEYSPNPEQIILDALYQAIDGADFFPVFYQRGKNMDTMLVRNCKAAIDKLFKQRLSINLKGGASIPISIQLGVAQYQRHQITPTFHIARVVTRLMKQLIQRDGVDGLLNLDNFGSHPEFKNLVVSLGNPSILMNVCQVIHNDDNERFRLNGFILSNNRIRDIRPLTLLANVDYALLDLRGNKIKSAERLCRALEQFRARELLLENNPIVKISNFPANIKSLESNFELVDGKPFNMLHKIFSPLDVEIDLEVDGARIDTNNMWKLPEFENSQHWHAFMIPDPSHEFNQEVFFDFFFIRLDPTLSNFYPCYYKYINTEHVFLVRNCFDQIAHLVNNCNLEMTIPTGDRIFRYYLRMNVSTVKQHHVDPEECIQKAVSQCYVAQNRMLNLERFHSRECLKDVMVSLSSPKILTYVLSVASRKFMTTCSEIRLCHNKVLVLDGAHVLGMMGCLRAVDLSHNWVQDLSSIHSLGNLPLKSLVLHGNKLCRNYRLPSEYVRAVKEVFPQLTTLDGVDLQTNPGQSLQKNFLCDTGAYELVGAFLENYLREFENDEFRHNLYKYYSENSIFTLTCNYNVVQNHQTPKILQRLSKYNRHARNLRNKDYSKASDGVFFGCTYIVEILLQLPRVTHDFHSLQTDVMHYNGKGAVIYVAGLLRDEPPSTRNGHGSKTDIGGVLLGFSRQFVVTFDEANLGLGKRARRLKIANERLHITNPSKTAIRNAFSVNFPDPSERQAEEDSLDVKDHKLLLFQEVTGLISTWVTSIVEEADWDFERALKLFIQKNADHEIPDLAFA
chain 2: MEAPMKLEVKVENYVECGINEDEATPLREGTGETPPHAFACGVPMSGSGWCSDPEDGNLVHHSATPTSDEHLQPSLDTIEPKMEPKIKEDADNAMLDSLLADPFENNSPATLQTPADVKPNAMLDSVEQGSRSCELLPSEFSKRENLDDMDLFSLKAAKTLVPDEQQSFPQNDTPIDDPEAADLIAQKREILKMLEMTAENRKVKHKKKKHKKERSHRSNKHQEESRKRNHSNSSSDEGADDKNQFDCDYRGHKKYKNRRGSASSQNESSKERKLRDTELDYVPVRPDEHFIRPIKFSNLIERRPPQVEFNTVNLSKADKRSLAVARAELVLEQIQQKANKEEPPEFHMVDTICKLPVNESFRNQDCFENPSPICNNMNVVYKFNSTPGTRIDLSKWGLETVPEATKRLLRLLGIDVARLKELQSTVKPSQRILKLKKEQLEQGLAPTEEQETATLYKNAATQTERRTATRDAGTQVRLESKLNGAFWQNPHFDPMNLTQHQSNVMLALQEIYQTLPSATMAVKLSRALAPALAIIKGRQP

Variants of: B1
Test: FLAG-tag co-immunoprecipitation, western blot quantification; lysates of transfected S2 cells; read off a plot

Variant	log10 ratio
chain 1 R755G	~-0.45 log10 coIP index [arbitrary unit]
